Experiment [1] has as its system mouse primary cortical neurons. As to the kind of experiment: Neurite growth of primary cortical neurons (beta-tubulin III immunostaining). Type of experiment: cell-based. The following applies: FB peptides; treated for two days, assessed at day 3. Here is the method: Next, primary cortical neurons (day 1 postnatal) were cultured in vitro with varying concentrations (0.006 to 60 nM) of the LRRC4B (453-576) protein fragment (i.e., amino acid residues 453-576 of SEQ ID NO: 2; SEQ ID NO: 7), and then at day 3 post-initial culture, the effect on neurite growth was assessed by immunostaining the cells with anti-beta-tubulin III antibody. Cells cultured with DMSO (“Veh”) were used as control.
Mouse hippocampal neurons were treated with LRRC4B peptides at 1 and 2 DIV to determine neurite growth. It was measured by using 3 different parameters, which are total neurites length, number of primary and secondary neurites. After the neurons were stained with beta-tubulin III at 3 DIV, neurites length and branch points were measured using Fiji (Image J, NIH, Bethesda). Individual neurons were selected by hand and these parameters were counted using the Simple neurite tracer plugin. Mouse spinal motor neurons sampled at postnatal day 1 were treated with 10 nM of NS101 and LRRC4B-peptides (dFB-dWY-JM31 and dFB-DY-JM31) at 1 and 2 DIV and immunostained with Tau-5 antibody at 3 DIV. Total neurite length and number of somas in images were measured by Neurphology Image J plugin.

In experiment [2] the target is T1, FAM19A5 protein (Homo sapiens, UniProt Q7Z5A7). As to the kind of experiment: ELISA binding of recombinant FAM19A5 to coated LRRC4 family ectodomains, fragments and FB peptides. The following applies: coated protein or peptide, FAM19A5 up to 10 nM. Here is the method:
Next, to confirm the above co-immunoprecipitation results, an ELISA assay was used to measure the binding of the FAM19A5 protein to either the full-length ectodomain of members of LRRC4 protein family or various LRRC4B ectodomain protein fragments. Specifically, an ELISA plate was coated with one of the following LRRC4B ectodomain protein, which was conjugated to human Fc (100 nM/well): (1) full-length ectodomain of LRRC4 protein (amino acid residues 39-527 of SEQ ID NO: 1) (SEQ ID NO: 4); (2) full-length ectodomain of LRRC4B protein (amino acids 36-576 of SEQ ID NO: 2; i.e., construct #7 in Table 6) (SEQ ID NO: 5); (3) full-length ectodomain of LRRC4C protein (amino acids 45-527 of SEQ ID NO: 3) (SEQ ID NO: 6); (4) LRRC4B ectodomain fragment (amino acids 453-576 of SEQ ID NO: 2; i.e., construct #11 in Table 6) (SEQ ID NO: 7); (5) LRRC4B ectodomain fragment (amino acids 484-576 of SEQ ID NO: 2; i.e., construct #12 in Table 6) (SEQ ID NO: 8); (6) LRRC4B ectodomain fragment (amino acids 482-576 of SEQ ID NO: 2) (SEQ ID NO: 9); (7) LRRC4B ectodomain fragment (amino acids 482-497 of SEQ ID NO: 2) (SEQ ID NO: 10); and (8) LRRC4B ectodomain fragment (amino acids 498-576 of SEQ ID NO: 2; i.e., construct #13 in Table 6) (SEQ ID NO: 11). Then, recombinant FAM19A5 proteins (0.005, 0.01, 0.025, 0.05, 0.1, 0.25, 0.5, 1, 2.5, 5, and 10 nM) were added to the relevant wells, and the plates were incubated at 37° C. for 1 hour. Afterwards, the amount of LRRC4B-bound FAM19A5 protein was detected using […] anti-FAM19A5 (1-65) antibody.
As further confirmation, three synthetic polypeptides comprising amino acids 484-497 of SEQ ID NO: 2 (i.e., YTYFTTVTVETLET; SEQ ID NO: 65) were constructed: (1) FB-16 (GYTYFTTVTVETLETQ; SEQ ID NO: 17), (2) FB-20 ([…]; SEQ ID NO: 18), and (3) FB-28 ([…]; SEQ ID NO: 19). The peptides differed in their total length. The ability of these polypeptides to bind to recombinant FAM19A5 protein was assessed using an ELISA assay as described above.

The target in experiment [3] is binding of FAM19A5 protein to full-length ectodomain of LRRC4C protein (Homo sapiens, UniProt Q7Z5A7). Nature of the experiment: Competitive inhibition assay, plate coated with full-length LRRC4C ectodomain. The settings on record: 100 nM/well coated full-length LRRC4C ectodomain; FAM19A5 5 ng/mL. As for the experimental part:
(§1) As described in Example 3, there appeared to be much similarity in the binding domains of the different members of the LRRC4 family. […] Then, recombinant FAM19A5 protein (5 ng/mL) was added in combination with one of the following: (i) LRRC4B (484-576) protein fragment, (ii) LRRC4B (453-576, AA) protein fragment, and (iii) synthetic FB-20 peptide. The plates were incubated at 37° C., and then, the amount of FAM19A5 protein bound to the coated LRRC4, LRRC4B, or LRRC4C proteins was measured using anti-FAM19A5 (1-65) antibody.

The target in experiment [4] is binding of FAM19A5 protein to full-length ectodomain of LRRC4 protein (Homo sapiens, UniProt Q7Z5A7). Nature of the experiment: Competitive inhibition assay, plate coated with full-length LRRC4 ectodomain. The settings on record: 100 nM/well coated full-length LRRC4 ectodomain; FAM19A5 5 ng/mL. As for the experimental part: as §1
Experiment [5] concerns the target binding of FAM19A5 protein to full-length ectodomain of the LRRC4B protein (amino acids 36-576)-hFc (Homo sapiens, UniProt Q7Z5A7). As to the kind of experiment: Competitive inhibition assay, plate coated with full-length LRRC4B ectodomain. The settings on record: 100 nM coated ectodomain; FAM19A5 5 ng/mL; increasing concentrations. As for the experimental part:
Next, to further assess the role that the binding domain of the LRRC4B protein has on the interaction between FAM19A5 protein and members of the LRRC4 protein family, a competitive inhibition assay was used to determine whether different LRRC4B deletion constructs from Example 2 could inhibit the binding of FAM19A5 to the full-length ectodomain of the LRRC4B protein (i.e., amino acids 36-576 of SEQ ID NO: 2; SEQ ID NO: 5). Briefly, 100 nM of the full-length ectodomain of the LRRC4B protein was used to coat a plate, and then recombinant FAM19A5 protein (5 ng/mL) was added to the plate in combination with the following LRRC4B deletion constructs (increasing concentrations): (1) LRRC4B (453-576) (i.e., construct #11 in Table 6); (2) LRRC4B (453-576) mutant (comprises alanine substitutions at positions 488 and 489 of SEQ ID NO: 2; SEQ ID NO: 16); (3) LRRC4B (484-576) (i.e., construct #12 in Table 6); (4) LRRC4B (482-576); (5) LRRC4B (482-497); and (6) LRRC4B (498-576). The plates were incubated at 37° C., and then, the amount of FAM19A5 bound to the coated LRRC4B ectodomain protein was measured using H1RP-conjugated anti-FAM19A5 (1-65) antibody. […]

The target of experiment [6] is T1, FAM19A5 protein. As to the kind of experiment: Co-immunoprecipitation of FLAG-tagged LRRC4 family constructs with recombinant FAM19A5 in HEK293 cells. The settings on record: HEK293 cells expressing FLAG-tagged construct, recombinant FAM19A5 protein (1 μM) 30 minutes; anti-FLAG immunoprecipitation. Type of experiment: binding. As for the experimental part:
To better understand the interaction between FAM19A5 and members of the LRRC4 protein family, HEK293 cells were modified to express a FLAG-tagged member of the LRRC4 protein family, i.e., LRRC4C protein, LRRC4 protein, or LRRC4B protein. Then, the HEK293 cells or primary cortical neurons were treated with recombinant FAM19A5 protein (1 μM) for 30 minutes, and the binding between FAM19A5 protein and the different members of the LRRC4 protein family was assessed using both co-immunoprecipitation and immunofluorescence assays.
For the co-immunoprecipitation assay, cell lysates from the different FAM19A5-treated HEK293 cells were collected and immunoprecipitated with an anti-FLAG antibody, anti-FAM19A5 (1-65) antibody, or a human IgG antibody (control). Immunoprecipitated proteins were immunoblotted with anti-FLAG and anti-FAM19A5 (3-2) antibodies. For the immunofluorescence assay, the HEK293 cells treated with the recombinant FAM19A5 protein were immunostained with anti-FAM19A5 (3-2) (to detect FAM19A5 protein expression) and anti-FLAG antibodies (to detect member of the LRRC4 protein family). The primary cortical neurons treated with the recombinant FAM19A5 protein were immunostained with anti-FAM19A5 (3-2) and anti-LRRC4B antibodies. The nuclei were stained with Hoechst33342 (blue).
To determine the specific motif or domain of the LRRC4B protein that is responsible for the binding to a FAM19A5 protein, various FLAG-tagged LRRC4B deletion constructs were generated (see Table 6 below). HEK293 cells were transfected with the different deletion constructs and then treated with recombinant FAM19A5 protein as described in Example 1. Then, the cell lysates from the different HEK293 cells were immunoprecipitated with the anti-FLAG antibody. The immunoprecipitated proteins were immunoblotted with anti-FLAG and anti-FAM19A5 (3-2) antibodies.
As described in Example 2, all members of the LRRC4 protein family were capable of binding to FAM19A5 protein to varying degrees. Therefore, to compare the bindings domains, the amino acid sequences of the LRRC4B, LRRC4, and LRRC4C proteins were aligned. […] Therefore, to assess whether the corresponding positions of LRRC4 and LRRC4C were important in the binding of these proteins to FAM19A5 protein, cDNAs encoding either (i) LRRC4C protein fragment (amino acids 354-527 of SEQ ID NO: 3; SEQ ID NO: 66) or (ii) LRRC4 protein fragment (amino acids 353-527 of SEQ ID NO: 1; SEQ ID NO: 67) were constructed (see Table 7). HEK293 cells were transfected to express either of the protein fragments and then treated with recombinant FAM19A5 protein as described in Example 1. Then, the cell lysates from the different HEK293 cells were immunoprecipitated with the anti-FLAG antibody. The immunoprecipitated proteins were immunoblotted with anti-FLAG and anti-FAM19A5 (3-2) antibodies.

The source of these data is US20250333441A1, “POLYPEPTIDE INHIBITORS AND USES THEREOF” (Neuracle Science Co., Ltd., priority 2021, published 2025).

T1 sequence (Q7Z5A7 44-132): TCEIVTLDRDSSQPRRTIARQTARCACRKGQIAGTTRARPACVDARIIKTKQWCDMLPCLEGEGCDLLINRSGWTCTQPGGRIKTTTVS
binding of FAM19A5 protein to full-length ectodomain of the LRRC4B protein (amino acids 36-576)-hFc, sequence (Q7Z5A7 44-132): as above
binding of FAM19A5 protein to full-length ectodomain of LRRC4C protein, sequence (Q7Z5A7 44-132): as above
binding of FAM19A5 protein to full-length ectodomain of LRRC4 protein, sequence (Q7Z5A7 44-132): as above

Consider GYTYFTTVTVETLETQ [FB-16], for which the neurite outgrowth result in experiment [1] was “Increased neurite outgrowth”. For the same molecule, in the experiment with FAM19A5 protein [2], the “binding to FAM19A5 protein (ELISA)” value is reported as “high affinity”.
In the case of GYTYFTTVTVETLETQPGEE [FB-20], in experiment [3], the “inhibition of FAM19A5 binding to coated LRRC4C protein” value was “able to inhibit FAM19A5 protein from binding”. In experiment [4], the “inhibition of FAM19A5 binding to coated LRRC4 protein” value is “able to inhibit FAM19A5 protein from binding”. For the same molecule, in experiment [1], the neurite outgrowth entry is given as “Increased neurite outgrowth”. Further, the “binding to FAM19A5 protein (ELISA)” value with FAM19A5 protein [2] is recorded as “high affinity”.
On to “LRRC4B (482-497): LRRC4B ectodomain fragment, amino acids 482-497 of SEQ ID NO: 2 (SEQ ID NO: 10) (GGYTYFTTVTVETLET; left off: a dimerising Fc or GST)”, for which, in experiment [5], the “inhibition of FAM19A5 binding to coated full-length LRRC4B ectodomain protein” value is given as “able to inhibit the interaction”.
For the molecule GYTYFTTVTVETLETQPGEKEPPGPTTD [FB-28], the neurite outgrowth entry in experiment [1] is “Increased neurite outgrowth”. In the experiment with FAM19A5 protein [2], the “binding to FAM19A5 protein (ELISA)” value is given as “high affinity”.

B1: LRRC4B (482-576): LRRC4B ectodomain fragment, amino acids 482-576 of SEQ ID NO: 2 (SEQ ID NO: 9) (protein)
chain: GGYTYFTTVTVETLETQPGEEALQPRGTEKEPPGPTTDGVWGGGRPGDAAGPASSSTTAPAPRSSRPTEKAFTVPITDVTENALKDLDDVMKTTK
Consider B1, for which, in experiment [5], the “inhibition of FAM19A5 binding to coated full-length LRRC4B ectodomain protein” value is on record as “able to inhibit the interaction”.

B2: LRRC4B (498-576): LRRC4B fragment, amino acids 498-576 of SEQ ID NO: 2 (SEQ ID NO: 11) (protein)
chain: QPGEEALQPRGTEKEPPGPTTDGVWGGGRPGDAAGPASSSTTAPAPRSSRPTEKAFTVPITDVTENALKDLDDVMKTTK
Take B2: in experiment [5], the “inhibition of FAM19A5 binding to coated full-length LRRC4B ectodomain protein” value is “much inferior in their ability to inhibit the interaction”. Further, the “binding to FAM19A5 protein (ELISA)” value with FAM19A5 protein [2] is given as “failed to bind to FAM19A5”.

B3: LRRC4B (484-576): LRRC4B fragment, amino acids 484-576 of SEQ ID NO: 2 (SEQ ID NO: 8) (protein)
chain: YTYFTTVTVETLETQPGEEALQPRGTEKEPPGPTTDGVWGGGRPGDAAGPASSSTTAPAPRSSRPTEKAFTVPITDVTENALKDLDDVMKTTK
For the molecule B3, in experiment [3], the “inhibition of FAM19A5 binding to coated LRRC4C protein” value is given as “able to inhibit FAM19A5 protein from binding”. The “inhibition of FAM19A5 binding to coated full-length LRRC4B ectodomain protein” value in experiment [5] is “able to inhibit the interaction”. Further, the “binding to FAM19A5 protein (co-immunoprecipitation)” value with FAM19A5 protein [6] was “able to bind to the FAM19A5 protein”. In addition, the “inhibition of FAM19A5 binding to coated LRRC4 protein” value in experiment [4] is “able to inhibit FAM19A5 protein from binding”.
